Results on 7 molecules are retold here after PMC4608358, “Physiological modulation of BiP activity by trans-protomer engagement of the interdomain linker” (eLife, 2015).

Series [1] concerns the molecule itself. Kind of series: native gel or EMSA; purified BiP proteins (30-50 µM) on a Tris-glycine native gel (4.5% stacking, 7.5% separation), Coomassie stain or immunoblot; with or without ATP (3-5 mM). Background: A gel shift assay detects complexes by their altered migration in electrophoresis.
For series [2], the target named is T1, wildtype hamster BiP, N-terminally hexahistidine-tagged (hamster, UniProt G3I8R9 19-654).
T1 construct: BiP (GRP78), hamster; Construct details are in Supplementary file 1; also called wt BiP; wildtype BiP; source: E. coli M15 (pQE10), purified (Ni-NTA); not shown: His6, N-terminal, kept
T1 sequence (G3I8R9 19-654): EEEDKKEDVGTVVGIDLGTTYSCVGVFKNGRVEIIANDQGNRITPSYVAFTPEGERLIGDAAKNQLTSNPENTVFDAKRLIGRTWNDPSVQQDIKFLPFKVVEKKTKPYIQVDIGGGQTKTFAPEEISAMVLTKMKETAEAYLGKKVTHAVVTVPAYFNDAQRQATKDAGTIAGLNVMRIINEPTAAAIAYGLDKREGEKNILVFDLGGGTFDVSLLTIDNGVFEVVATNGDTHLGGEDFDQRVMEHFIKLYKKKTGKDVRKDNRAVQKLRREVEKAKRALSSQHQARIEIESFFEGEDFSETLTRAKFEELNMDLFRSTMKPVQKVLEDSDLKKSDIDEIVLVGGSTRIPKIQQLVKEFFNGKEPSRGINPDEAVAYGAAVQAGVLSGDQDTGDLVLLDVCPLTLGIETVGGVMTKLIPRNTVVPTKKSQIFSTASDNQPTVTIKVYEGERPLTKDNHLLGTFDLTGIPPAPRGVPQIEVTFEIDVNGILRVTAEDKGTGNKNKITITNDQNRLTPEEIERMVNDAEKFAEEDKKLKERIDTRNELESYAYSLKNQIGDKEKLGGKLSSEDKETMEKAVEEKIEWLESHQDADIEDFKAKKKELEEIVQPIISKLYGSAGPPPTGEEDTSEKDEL
Kind of series: SEC; wildtype BiP (50 µM) incubated 16 hr with 1 mM peptide in HKM, SEC-3 column; competition of peptides with oligomerisation. To be noted: both partners purified.

For series [3], the target named is T1, wildtype hamster BiP, N-terminally …. Kind of series: SEC; BiP protein (50 µM) with 1 µM lucifer yellow-labeled tracer (peptide or BiP V461F), 16 hr in HKM; A230 nm and LY fluorescence recorded; with or without SubA (36 ng/µl) before the run. To be noted: both partners purified. A general note: In gel filtration, larger molecules generally elute earlier.
Series [4] deals with the molecule itself. Kind of series: SEC; purified BiP proteins at 50 µM in HKM buffer (50 mM HEPES-KOH pH 7.4, 150 mM KCl, 10 mM MgCl2), 16 hr at room temperature, no added nucleotide; SEC-3 HPLC column, A230 nm.

Where no end group is shown, it is not given here.

B1: BiP^T229A, ATPase activity-deficient mutant of hamster BiP (natural protein)
chain: not shown
notes: BiP (GRP78), hamster; Construct details are in Supplementary file 1; source: E. coli M15 (pQE10), purified (Ni-NTA); not shown: His6, N-terminal, kept
On to B1, for which, in series [1], the binding result was “binds”.

B2: peptide derived from the interdomain linker of BiP (DTGDLVLLD) (peptide)
peptide: DTGDLVLLD
notes: interdomain linker of BiP (GRP78), hamster; also called Linker Pep; linker peptide
As for B2, the binding result in series [2] is reported as “binds”.

B3: BiP^G226D, hamster BiP mutant locked in the domain-uncoupled state (natural protein)
chain: not shown
notes: BiP (GRP78), hamster; Construct details are in Supplementary file 1; source: E. coli, purified; not shown: His6, N-terminal, kept
For B3, the binding result in series [1] is “binds”.

B4: BiP-binding peptide HTFPAVL (peptide)
peptide: HTFPAVL
notes: well-characterized BiP substrate peptide (Marcinowski et al., 2011); also called BiP substrate peptide
Turning to B4, the binding result in series [2] is “binds”.

B5: lucifer yellow-labeled BiP-binding peptide (HTFPAVL-LY) (peptide)
peptide: HTFPAVL-{lucifer yellow}
notes: BiP substrate peptide (Marcinowski et al., 2011), fluorescently labelled; also called Pep-LY
Consider B5, for which, in series [3], the “ratio of fluorescent to quantity signal R^(FLU/A230 nm), peak II (peak I set to 1.00)” value turned out to be 0.48 and the “ratio of fluorescent to quantity signal R^(FLU/A230 nm), peak III (peak I set to 1.00)” value came out at 0.26.

B6: BiP^lidless, hamster BiP lacking its C-terminal lid (∆554–654) (domain or fragment)
chain: not shown
notes: Construct details are in Supplementary file 1; also called lidless BiP; source: E. coli, purified; not shown: His6, N-terminal, kept
With B6, in series [4], the binding result is recorded as “binds”.

B7: BiP^T37G, hamster BiP mutant locked in the domain-uncoupled state (natural protein)
chain: not shown
notes: as for B3
Take B7: in series [1], the binding result is listed as “binds”.
